The values that follow come from article PMC6007841.

This assay addresses human melanocortin 1 receptor (human) (UniProt Q01726).

Chain of human melanocortin 1 receptor (human) (Q01726 whole entry): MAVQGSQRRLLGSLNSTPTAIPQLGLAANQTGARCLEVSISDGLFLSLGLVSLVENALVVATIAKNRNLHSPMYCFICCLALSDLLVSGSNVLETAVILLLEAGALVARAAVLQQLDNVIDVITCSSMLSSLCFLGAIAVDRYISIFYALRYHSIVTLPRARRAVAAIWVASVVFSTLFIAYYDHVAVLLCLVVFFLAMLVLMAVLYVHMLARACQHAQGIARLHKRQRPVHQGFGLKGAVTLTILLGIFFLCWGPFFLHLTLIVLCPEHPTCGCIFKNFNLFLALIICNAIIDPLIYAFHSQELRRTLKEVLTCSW

In the case of DQYKCLQHGGFCLRSSCPSNTKLQGTCKPDKPNCCKS (reduced, linear form) [mouse β-defensin 1, linear, reduced form], the cAMP agonist EC50 (AlphaScreen cAMP assay, HEK293 cells expressing the receptor) came out at 4.5 µM.
